Results on 167 variants are retold here after the RNAGym collection of RNA variant scans (doi:10.7554/elife.80360).

B1: HDV Ribozyme (parent)
chain: GGCCGGCAUGGUCCCAGCCUCCUCGCUGGCGCCGGCUGGGCAACAUUCCGAGGGGACCGUCCCCUCGGUAAUGGCGAAUGGGACCCA

Variants of B1 are the subject of this series. The experiment in a line: self-cleavage, relative activity (ratio to wild type); higher = more cleavage; co-transcriptional.
Consider U12C U65A, for which the self-cleavage stood at 0.489.
For the variant U12C U65G, the self-cleavage is 0.323.
With C13A A71U, the self-cleavage was 0.0615.
The same measure for U12C G52U: 0.35; for U12C G52A: 0.554; for U12A U47G: 0.262.
Consider U12A U47C, for which the self-cleavage came to 0.332.
Regarding U12A G54A, the self-cleavage stood at 0.306.
The same measure for U12C A87G: 0.369.
With U12C A87C, the self-cleavage was 0.479.
As for U12G A70C, the self-cleavage amounted to 0.462.
As for U12C C22A, the self-cleavage is 0.115.
Take U12C C22U: the self-cleavage is 0.231.
For U12C C66U, the self-cleavage worked out at 0.655.
On to U12C C66A, for which the self-cleavage worked out at 0.332.
The result for U12C U20G reads 0.0831; that for U12C U20C, 0.
The same measure for C13A G38A: 0.0631.
For the variant C13A G38U, the self-cleavage was 0.0536.
On to C13A G38C, for which the self-cleavage stood at 0.106.
The result for U12C C15U reads 0.147; that for U12C C15A, 0.482; that for U12C C15G, 0.147.
Regarding U12C A70C, the self-cleavage came out at 0.
For the variant U12C C26A, the self-cleavage is 0.831.
With U12C C26U, the self-cleavage is 0.776.
For the variant U12C U47A, the self-cleavage was found to be 0.289.
The result for U12G U20C reads 0; that for U12G U20G, 0.
For the variant C13A C86A, the self-cleavage is 0.492.
With C13A C86G, the self-cleavage was 0.178.
In the case of U12A U27G, the self-cleavage came to 0.237.
As for U12A U27C, the self-cleavage amounted to 0.35.
As to C13A C44A, the self-cleavage was found to be 0.119.
As to C13A C44G, the self-cleavage amounted to 0.
The same measure for C13A C44U: 0.0652; for U12A G53A: 0.403; for U12A G53C: 0.475.
Turning to C13A C41A, the self-cleavage was 0.219.
Turning to C13A C41U, the self-cleavage stood at 0.149.
Turning to U12G G81C, the self-cleavage came to 0.665.
For the variant U12G G81U, the self-cleavage was 0.266.
U12G G81A: the self-cleavage came out at 0.201.
In the case of U12C G35A, the self-cleavage amounted to 0.0723.
Consider U12C G35U, for which the self-cleavage was determined as 0.
Turning to C13A C85U, the self-cleavage was 0.141.
With C13A C85G, the self-cleavage is 0.0396.
For U12C C32U, the self-cleavage worked out at 0.135.
As for U12C C32G, the self-cleavage stood at 0.
As to U12C G59U, the self-cleavage worked out at 0.135.
Consider U12C G59C, for which the self-cleavage came out at 0.415.
For the variant U12C A43G, the self-cleavage came out at 0.0437.
With U12C C75A, the self-cleavage is 0.166.
Turning to U12C C75G, the self-cleavage is 0.166.
U12C C75U: the self-cleavage stood at 0.104.
Consider C13A, for which the self-cleavage is 0.21.
On to C13A G25C, for which the self-cleavage came to 0.0773.
For the variant C13A G25A, the self-cleavage stood at 0.0277.
The result for U12C C41G reads 0.289.
On to U12G C62U, for which the self-cleavage turned out to be 0.755.
U12G C62A: the self-cleavage turned out to be 1.06.
Consider U12C G74A, for which the self-cleavage was found to be 0.0519.
Regarding U12C G74C, the self-cleavage was 0.
U12C C63G: the self-cleavage worked out at 0.123.
The result for U12C G54U reads 0.415; that for U12C U37C, 0.35.
With U12C U37G, the self-cleavage worked out at 0.332.
On to U12C U37A, for which the self-cleavage was 0.147.
Take C13A A87C: the self-cleavage stood at 0.222.
Turning to C13A A87U, the self-cleavage came to 0.157.
For the variant U12G G54A, the self-cleavage is 0.831.
With U12G G54U, the self-cleavage stood at 0.793.
Turning to U12A G74A, the self-cleavage is 0.128.
Turning to U12A G74C, the self-cleavage was determined as 0.135.
Consider U12A G67U, for which the self-cleavage came to 0.256.
Turning to U12A G67A, the self-cleavage worked out at 0.383.
As for U12G A45C, the self-cleavage is 0.399.
As to U12A G80C, the self-cleavage is 0.0852.
Regarding U12G A43C, the self-cleavage stood at 0.431.
The result for U12C U46C reads 0.101.
Regarding U12G A78C, the self-cleavage stood at 0.0594.
U12G A78G: the self-cleavage was 0.612.
On to C13A C22A, for which the self-cleavage was determined as 0.0287.
For the variant C13A C22G, the self-cleavage amounted to 0.026.
Take C13A A42C: the self-cleavage was determined as 0.0594.
Turning to U12A G81C, the self-cleavage is 0.0723.
The result for U12A G81U reads 0.122; that for U12C C19G, 0.0723; that for U12C C19U, 0.0415.
The result for C13A C33A reads 0.0396; that for C13A C33U, 0.369.
For the variant U12C C62G, the self-cleavage came to 0.123.
Turning to U12A G73C, the self-cleavage came out at 0.314.
The result for U12A G73A reads 0.123; that for U12G G28A, 0; that for U12G G28U, 0.
For the variant U12G U65C, the self-cleavage stood at 0.831.
For the variant U12G U65G, the self-cleavage is 0.962.
The same measure for U12C G39C: 0.
For U12C G39A, the self-cleavage is 0.106.
For the variant U12G C14G, the self-cleavage stood at 0.
U12G C14A: the self-cleavage is 0.356.
With U12G C19A, the self-cleavage came to 0.161.
Take U12G C19G: the self-cleavage was determined as 0.
Take U12G C19U: the self-cleavage was determined as 0.0378.
U12A U79G: the self-cleavage was 0.302.
U12A U79C: the self-cleavage is 0.166.
For U12G C15A, the self-cleavage turned out to be 0.237.
On to U12G C15U, for which the self-cleavage is 0.453.
For the variant U12C U27A, the self-cleavage came to 0.506.
Take U12C U27C: the self-cleavage turned out to be 0.222.
Regarding U12G U27A, the self-cleavage is 0.831.
The same measure for C13A C15A: 0.
Consider C13A C15U, for which the self-cleavage is 0.185.
As to U12G G40A, the self-cleavage came out at 0.72.
On to U12G G40C, for which the self-cleavage was found to be 0.123.
Consider U12C A83U, for which the self-cleavage turned out to be 0.128.
Consider C13A C26U, for which the self-cleavage was 0.764.
The same measure for U12G C30U: 0.375; for U12G C30A: 0.332.
Take U12C G73A: the self-cleavage stood at 0.289.
The result for C13A G34A reads 0.131; that for C13A G34C, 0.151; that for C13A G34U, 0.
U12G A71C: the self-cleavage was 0.712.
With U12G A71G, the self-cleavage turned out to be 0.594.
Turning to C13A G39A, the self-cleavage came to 0.121.
For U12C C14U, the self-cleavage worked out at 0.277.
On to U12C C14G, for which the self-cleavage was found to be 0.229.
The same measure for U12C C14A: 0.18.
U12C G76U: the self-cleavage came to 0.489.
The result for U12C G55A reads 0.237; that for U12C G55U, 0.59.
U12C A51U: the self-cleavage stood at 0.359.
The same measure for U12C U60A: 0.145; for U12C G50A: 0.359.
The same measure for U12C G50U: 0.332; for C13A C62A: 0.158; for C13A C62U: 0.214.
As for U12C G38C, the self-cleavage is 0.0475.
For U12C G38A, the self-cleavage is 0.0875.
The same measure for U12G U72A: 0.525; for U12G C61A: 0.798.
With U12G C61U, the self-cleavage worked out at 0.831.
As for U12G C61G, the self-cleavage was 0.798.
For the variant U12A U20G, the self-cleavage amounted to 0.
Regarding U12A U20A, the self-cleavage turned out to be 0.101.
The result for U12A U20C reads 0.
As for U12G G25C, the self-cleavage was determined as 0.119.
In the case of U12G C44G, the self-cleavage turned out to be 0.475.
Regarding U12G C44A, the self-cleavage was determined as 0.604.
The result for C13A A16G reads 0.293.
The same measure for C13A A16C: 0.748; for U12G C24A: 0.65; for U12G C24U: 0.511.
The same measure for C13A C18G: 0.0773; for C13A C18U: 0.0604; for U12C C18U: 0.111.
On to U12C C18G, for which the self-cleavage stood at 0.
Take U12G U69G: the self-cleavage was 0.831.
The same measure for U12C C36A: 0.142; for U12C G68U: 0.284; for U12C C57U: 0.293.
The result for C13A G35A reads 0.0339; that for U12G C32G, 0.0755.
U12C C58U: the self-cleavage worked out at 0.222.
The same measure for U12C C58G: 0.208.
